Results reported in US20250223358A1.
“And” between values parts separate entries of the source, which are not always exact repeats. Equal entries are not always repeated.

Target: human CD3 (human) (UniProt P07766)
Assay: cell-based or functional assay

human CD3 (human), sequence (P07766 23-207, chain 1 of 3): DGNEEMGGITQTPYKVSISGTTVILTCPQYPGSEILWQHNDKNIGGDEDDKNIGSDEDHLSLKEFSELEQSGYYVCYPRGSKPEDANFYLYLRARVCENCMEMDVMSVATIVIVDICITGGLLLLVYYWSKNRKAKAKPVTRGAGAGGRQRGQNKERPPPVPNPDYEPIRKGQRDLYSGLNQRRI
human CD3 (human), sequence (P04234 22-171, chain 2 of 3, further chain): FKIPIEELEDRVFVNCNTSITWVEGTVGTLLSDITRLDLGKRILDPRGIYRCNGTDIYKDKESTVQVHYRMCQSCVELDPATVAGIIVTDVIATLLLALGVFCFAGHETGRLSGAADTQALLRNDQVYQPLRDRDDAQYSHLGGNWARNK
human CD3 (human), sequence (P09693 23-182, chain 3 of 3, further chain): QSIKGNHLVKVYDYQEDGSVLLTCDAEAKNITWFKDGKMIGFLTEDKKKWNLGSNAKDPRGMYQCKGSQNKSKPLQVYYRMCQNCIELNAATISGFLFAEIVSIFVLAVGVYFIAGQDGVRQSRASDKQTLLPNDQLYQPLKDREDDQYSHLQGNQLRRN

- RLU (Jurkat-NFAT-luciferase activation, antibody coated at 50 ug/mL), Plate 1: 564 RLU and 582 RLU
- RLU (Jurkat-NFAT-luciferase activation, antibody coated at 50 ug/mL), Plate 2: 386 RLU and 380 RLU
- RLU (Jurkat-NFAT-luciferase activation, antibody coated at 50 ug/mL), Plate 3: 237 RLU and 231 RLU
Substance: Isotype control (antibody)
